± gives the standard deviation of the averaged measurements.
Test: total protein half-life in vivo (active degradation + dilution); higher = more stable protein
[1] = E. coli NCM3722 delta-clpP delta-lon delta-hslV, growth: N-lim chemostat, doubling time 6 h
[2] = E. coli NCM3722 delta-clpP, growth: N-lim chemostat, doubling time 6 h
[3] = E. coli NCM3722 delta-hslV, growth: N-lim chemostat, doubling time 6 h
[4] = E. coli NCM3722 delta-lon, growth: N-lim chemostat, doubling time 6 h
[5] = E. coli NCM3722 delta-smpB, growth: N-lim chemostat, doubling time 6 h
[6] = wild type E. coli NCM3722, growth: C-lim chemostat, doubling time 3 h
[7] = wild type E. coli NCM3722, growth: C-lim chemostat, doubling time 6 h
[8] = wild type E. coli NCM3722, growth: C-lim chemostat, doubling time 12 h
[9] = wild type E. coli NCM3722, growth: N-lim chemostat, doubling time 6 h
[10] = wild type E. coli NCM3722, growth: N-lim chemostat, doubling time 12 h
[11] = wild type E. coli NCM3722, growth: P-lim chemostat, doubling time 6 h
[12] = wild type E. coli NCM3722, growth: P-lim chemostat, doubling time 12 h

| Sequence | total protein half-life in vivo [1] [h] | total protein half-life in vivo [2] [h] | total protein half-life in vivo [3] [h] | total protein half-life in vivo [4] [h] | total protein half-life in vivo [5] [h] | total protein half-life in vivo [6] [h] | total protein half-life in vivo [7] [h] | total protein half-life in vivo [8] [h] | total protein half-life in vivo [9] [h] | total protein half-life in vivo [10] [h] | total protein half-life in vivo [11] [h] | total protein half-life in vivo [12] [h] |
| --- | --- | --- | --- | --- | --- | --- | --- | --- | --- | --- | --- | --- |
| MSKAGKITAAISGAFLLLIVVAIILIATFDWNRLKPTINQKVSAELNRPFAIRGDLGVVWERQKQETGWRSWVPWPHVHAEDIILGNPPDIPEVTMVHLPRVEATLAPLALLTKTVWLPWIKLEKPDARLIRLSEKNNNWTFNLANDDNKDANAKPSAWSFRLDNILFDQGRIAIDDKVSKADLEIFVDPLGKPLPFSEVTGSKGKADKEKVGDYVFGLKAQGRYNGEPLTGTGKIGGMLALRGEGTPFPVQADFRSGNTRVAFDGVVNDPMKMGGVDLRLKFSGDSLGDLYELTGVLLPDTPPFETDGRLVAKIDTEKSSVFDYRGFNGRIGDSDIHGSLVYTTGKPRPKLEGDVESRQLRLADLGPLIGVDSGKGAEKSKRSEQKKGEKSVQPAGKVLPYDRFETDKWDVMDADVRFKGRRIEHGSSLPISDLSTHIILKNADLRLQPLKFGMAGGSIAANIHLEGDKKPMQGRADIQARRLKLKELMPDVELMQKTLGEMNGDAELRGSGNSVAALLGNSNGNLKLLMNDGLVSRNLMEIVGLNVGNYIVGAIFGDDEVRVNCAAANLNIANGVARPQIFAFDTENALINVTGTASFASEQLDLTIDPESKGIRIITLRSPLYVRGTFKNPQAGVKAGPLIARGAVAAALATLVTPAAALLALISPSEGEANQCRTILSQMKK | 6.24 ± 0.57 | 5.9 ± 0.17 | 6.13 ± 0.039 | 6.42 ± 0.4 | 5.438 ± 0.026 | 3.09 ± 0.22 | 5.72 ± 0.19 | 10.9 ± 1.2 | 5.57 ± 0.16 | 10.9 ± 0.42 | 5.49 ± 0.3 | 9.41 ± 0.73 |
| MSKFLDRFRYFKQKGETFADGHGQLLNTNRDWEDGYRQRWQHDKIVRSTHGVNCTGSCSWKIYVKNGLVTWETQQTDYPRTRPDLPNHEPRGCPRGASYSWYLYSANRLKYPMMRKRLMKMWREAKALHSDPVEAWASIIEDADKAKSFKQARGRGGFVRSSWQEVNELIAASNVYTIKNYGPDRVAGFSPIPAMSMVSYASGARYLSLIGGTCLSFYDWYCDLPPASPQTWGEQTDVPESADWYNSSYIIAWGSNVPQTRTPDAHFFTEVRYKGTKTVAVTPDYAEIAKLCDLWLAPKQGTDAAMALAMGHVMLREFHLDNPSQYFTDYVRRYTDMPMLVMLEERDGYYAAGRMLRAADLVDALGQENNPEWKTVAFNTNGEMVAPNGSIGFRWGEKGKWNLEQRDGKTGEETELQLSLLGSQDEIAEVGFPYFGGDGTEHFNKVELENVLLHKLPVKRLQLADGSTALVTTVYDLTLANYGLERGLNDVNCATSYDDVKAYTPAWAEQITGVSRSQIIRIAREFADNADKTHGRSMIIVGAGLNHWYHLDMNYRGLINMLIFCGCVGQSGGGWAHYVGQEKLRPQTGWQPLAFALDWQRPARHMNSTSYFYNHSSQWRYETVTAEELLSPMADKSRYTGHLIDFNVRAERMGWLPSAPQLGTNPLTIAGEAEKAGMNPVDYTVKSLKEGSIRFAAEQPENGKNHPRNLFIWRSNLLGSSGKGHEFMLKYLLGTEHGIQGKDLGQQGGVKPEEVDWQDNGLEGKLDLVVTLDFRLSSTCLYSDIILPTATWYEKDDMNTSDMHPFIHPLSAAVDPAWEAKSDWEIYKAIAKKFSEVCVGHLGKETDIVTLPIQHDSAAELAQPLDVKDWKKGECDLIPGKTAPHIMVVERDYPATYERFTSIGPLMEKIGNGGKGIAWNTQSEMDLLRKLNYTKAEGPAKGQPMLNTAIDAAEMILTLAPETNGQVAVKAWAALSEFTGRDHTHLALNKEDEKIRFRDIQAQPRKIISSPTWSGLEDEHVSYNAGYTNVHELIPWRTLSGRQQLYQDHQWMRDFGESLLVYRPPIDTRSVKEVIGQKSNGNQEKALNFLTPHQKWGIHSTYSDNLLMLTLGRGGPVVWLSEADAKDLGIADNDWIEVFNSNGALTARAVVSQRVPAGMTMMYHAQERIVNLPGSEITQQRGGIHNSVTRITPKPTHMIGGYAHLAYGFNYYGTVGSNRDEFVVVRKMKNIDWLDGEGNDQVQESVK | 6.33 ± 1.8 |  | 5.88 ± 0.73 | 6.6 ± 0.84 | 4.97 ± 0.39 | 2.41 | 6.81 | 13.2 | 6.23 ± 0.94 |  | 5.64 ± 0.29 | 12.1 ± 1.3 |
| MSKIKGNVKWFNESKGFGFITPEDGSKDVFVHFSAIQTNGFKTLAEGQRVEFEITNGAKGPSAANVIAL [P0A972] | 3.54 ± 0.22 | 2.27 ± 0.041 | 1.7 ± 0.036 | 3.44 ± 0.12 | 1.96 ± 0.28 | 2.156 ± 0.014 | 2.37 ± 0.17 | 2.62 ± 0.54 | 1.8 ± 0.15 | 2.23 ± 0.19 | 1.945 ± 0.018 | 3.16 ± 0.3 |
| MSKKIAVLITDEFEDSEFTSPADEFRKAGHEVITIEKQAGKTVKGKKGEASVTIDKSIDEVTPAEFDALLLPGGHSPDYLRGDNRFVTFTRDFVNSGKPVFAICHGPQLLISADVIRGRKLTAVKPIIIDVKNAGAEFYDQEVVVDKDQLVTSRTPDDLPAFNREALRLLGA | 6.07 ± 1.3 | 4.34 ± 0.18 | 5.59 ± 1.4 | 5.74 ± 0.21 | 4.51 ± 0.087 | 3.22 ± 0.3 | 5.32 ± 0.083 | 9.27 ± 0.35 | 4.72 ± 0.18 | 7.76 ± 0.18 | 5.12 ± 0.29 | 10.6 ± 1.1 |
| MSKKYIIGIDGGSQSTKVVMYDLEGNVVCEGKGLLQPMHTPDADTAEHPDDDLWASLCFAGHDLMSQFAGNKEDIVGIGLGSIRCCRALLKADGTPAAPLISWQDARVTRPYEHTNPDVAYVTSFSGYLTHRLTGEFKDNIANYFGQWPVDYKSWAWSEDAAVMDKFNIPRHMLFDVQMPGTVLGHITPQAALATHFPAGLPVVCTTSDKPVEALGAGLLDDETAVISLGTYIALMMNGKALPKDPVAYWPIMSSIPQTLLYEGYGIRKGMWTVSWLRDMLGESLIQDARAQDLSPEDLLNKKASCVPPGCNGLMTVLDWLTNPWEPYKRGIMIGFDSSMDYAWIYRSILESVALTLKNNYDNMCNEMNHFAKHVIITGGGSNSDLFMQIFADVFNLPARRNAINGCASLGAAINTAVGLGLYPDYATAVDNMVRVKDIFIPIESNAKRYDAMNKGIFKDLTKHTDVILKKSYEVMHGELGNVDSIQSWSNA | 2.5 |  |  |  |  | 2.855 ± 0.0047 | 4.03 ± 0.54 | 8.14 ± 1.2 |  |  |  | 2.92 |
| MSKPFKLNSAFKPSGDQPEAIRRLEEGLEDGLAHQTLLGVTGSGKTFTIANVIADLQRPTMVLAPNKTLAAQLYGEMKEFFPENAVEYFVSYYDYYQPEAYVPSSDTFIEKDASVNEHIEQMRLSATKAMLERRDVVVVASVSAIYGLGDPDLYLKMMLHLTVGMIIDQRAILRRLAELQYARNDQAFQRGTFRVRGEVIDIFPAESDDIALRVELFDEEVERLSLFDPLTGQIVSTIPRFTIYPKTHYVTPRERIVQAMEEIKEELAARRKVLLENNKLLEEQRLTQRTQFDLEMMNELGYCSGIENYSRFLSGRGPGEPPPTLFDYLPADGLLVVDESHVTIPQIGGMYRGDRARKETLVEYGFRLPSALDNRPLKFEEFEALAPQTIYVSATPGNYELEKSGGDVVDQVVRPTGLLDPIIEVRPVATQVDDLLSEIRQRAAINERVLVTTLTKRMAEDLTEYLEEHGERVRYLHSDIDTVERMEIIRDLRLGEFDVLVGINLLREGLDMPEVSLVAILDADKEGFLRSERSLIQTIGRAARNVNGKAILYGDKITPSMAKAIGETERRREKQQKYNEEHGITPQGLNKKVVDILALGQNIAKTKAKGRGKSRPIVEPDNVPMDMSPKALQQKIHELEGLMMQHAQNLEFEEAAQIRDQLHQLRELFIAAS [P0A8F8] | 5.26 ± 0.16 | 4.561 ± 0.016 | 2.99 ± 0.055 | 3.39 ± 0.18 | 2.85 ± 0.065 | 2.44 ± 0.18 | 4.02 ± 0.073 | 6.348 ± 0.01 | 2.96 ± 0.15 | 4.85 ± 0.78 | 3.67 ± 0.054 | 5.85 ± 0.49 |
| MSKPIVMERGVKYRDADKMALIPVKNVATEREALLRKPEWMKIKLPADSTRIQGIKAAMRKNGLHSVCEEASCPNLAECFNHGTATFMILGAICTRRCPFCDVAHGRPVAPDANEPVKLAQTIADMALRYVVITSVDRDDLRDGGAQHFADCITAIREKSPQIKIETLVPDFRGRMDRALDILTATPPDVFNHNLENVPRIYRQVRPGADYNWSLKLLERFKEAHPEIPTKSGLMVGLGETNEEIIEVMRDLRRHGVTMLTLGQYLQPSRHHLPVQRYVSPDEFDEMKAEALAMGFTHAACGPFVRSSYHADLQAKGMEVK | 5.22 ± 1 | 1.56 ± 0.071 | 1.64 ± 0.38 | 1.84 ± 0.034 | 1.27 ± 0.14 | 1.23 ± 0.056 | 1.93 ± 0.095 | 2.47 ± 0.21 | 1.67 ± 0.095 | 2.4 ± 0.28 | 1.74 ± 0.22 | 3.3 ± 0.49 |
| MSKQLTAQAPVDPIVLGKMGSSYGIRGWLRVFSSTEDAESIFDYQPWFIQKAGQWQQVQLESWKHHNQDMIIKLKGVDDRDAANLLTNCEIVVDSSQLPQLEEGDYYWKDLMGCQVVTTEGYDLGKVVDMMETGSNDVLVIKANLKDAFGIKERLVPFLDGQVIKKVDLTTRSIEVDWDPGF [P0A7X6] | 5.56 ± 0.28 | 3.21 | 3.38 | 4.04 ± 1.9 | 3.79 | 2.65 ± 0.43 | 4.72 ± 0.19 | 7.94 ± 0.8 |  | 5.22 |  | 3.98 ± 0.42 |

— the supplement of paper PMC11246515
